Test results taken from patent US20130323264A1.

Biological target: monoclonal antibody against the N-terminal FERM domain of moesin
Assay: cell-based or functional assay

- CD62P FD (Mnx), platelet activation induced by anti-moesin N-terminal domain antibody, inhibitor N-terminal FERM domain: 5.79 FD (Mnx)
- CD63 FD (Mnx), platelet activation induced by anti-moesin N-terminal domain antibody, inhibitor N-terminal FERM domain: 6.3 FD (Mnx)
- PAIR, platelet aggregation induced by anti-moesin N-terminal domain antibody (2 µg/mL), inhibitor N-terminal domain (0.2 mM): 90.2%
- PAR (%), platelet aggregation induced by anti-moesin N-terminal domain antibody (2 µg/mL), inhibitor N-terminal domain (0.2 mM): 6.03%
Substance: N-terminal FERM domain of human moesin protein (from UniProt P26038 1-297)
